The results in this text go back to PMC12208556.

The test addresses recombinant full-length thrombospondin-1 (human) (UniProt P07996). The test is described as follows: SPR; BIAcore 3000; TSP-1 bound covalently to CM5 chips at 0.1 uM; complement proteins as analytes at 12.3, 37.03, 111.1, 333.3, 1,000 nM in PBS plus 0.05% Tween 20; 1:1 Langmuir binding model; average of 3 repeated measurements. Background: SPR reads the build-up and loss of mass on a sensor chip optically.

recombinant full-length thrombospondin-1 (human), sequence (P07996 19-1170): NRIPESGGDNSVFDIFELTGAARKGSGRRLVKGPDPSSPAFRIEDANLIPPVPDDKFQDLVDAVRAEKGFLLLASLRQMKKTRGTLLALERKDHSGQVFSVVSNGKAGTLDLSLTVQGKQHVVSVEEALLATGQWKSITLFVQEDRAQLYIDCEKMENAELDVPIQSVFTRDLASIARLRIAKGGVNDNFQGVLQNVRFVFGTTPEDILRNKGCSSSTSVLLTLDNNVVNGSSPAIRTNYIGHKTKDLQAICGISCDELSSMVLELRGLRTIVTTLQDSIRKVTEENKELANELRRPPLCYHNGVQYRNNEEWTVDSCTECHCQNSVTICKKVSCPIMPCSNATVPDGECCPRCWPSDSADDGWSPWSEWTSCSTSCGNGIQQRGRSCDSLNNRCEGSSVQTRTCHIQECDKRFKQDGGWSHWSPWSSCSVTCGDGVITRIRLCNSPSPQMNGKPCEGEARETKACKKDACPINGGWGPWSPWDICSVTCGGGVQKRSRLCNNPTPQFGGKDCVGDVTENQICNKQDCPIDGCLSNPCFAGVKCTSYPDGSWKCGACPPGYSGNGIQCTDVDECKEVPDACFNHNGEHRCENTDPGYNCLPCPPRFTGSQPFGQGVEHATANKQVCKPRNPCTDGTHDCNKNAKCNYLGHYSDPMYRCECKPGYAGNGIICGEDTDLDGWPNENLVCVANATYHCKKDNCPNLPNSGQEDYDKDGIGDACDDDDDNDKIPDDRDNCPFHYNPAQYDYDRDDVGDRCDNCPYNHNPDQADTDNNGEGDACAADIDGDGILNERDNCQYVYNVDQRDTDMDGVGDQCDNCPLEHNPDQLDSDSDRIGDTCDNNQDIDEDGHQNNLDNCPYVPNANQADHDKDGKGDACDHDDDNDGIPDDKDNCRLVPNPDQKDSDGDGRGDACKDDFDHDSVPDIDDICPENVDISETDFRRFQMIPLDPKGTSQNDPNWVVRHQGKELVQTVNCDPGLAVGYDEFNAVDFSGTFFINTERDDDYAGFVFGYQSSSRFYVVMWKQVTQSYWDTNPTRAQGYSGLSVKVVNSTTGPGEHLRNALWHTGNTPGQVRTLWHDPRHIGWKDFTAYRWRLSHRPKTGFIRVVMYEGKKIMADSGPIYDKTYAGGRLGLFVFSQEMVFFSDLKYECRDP

Consider complement C3 (natural protein), for which the equilibrium dissociation constant (Kd) came out at 127 nM.
In the case of complement C5 (natural protein), the Kd came to 47.2 nM.

One may read the Kd as the free concentration of one partner at which half of the binding sites on the other are occupied at equilibrium, for simple one-to-one binding.
